Measured values taken from patent US20240290419A1 (KATHOLIEKE UNIVERSITEIT LEUVEN, published 2024).

Legend:
[1] = molecular target: the molecule itself; assay: size exclusion chromatography, after EDTA
Excerpt: (§1) FIG. 29: Size Exclusion Chromatograms for various SAKe mutants. A: S6BE-3 HR on a HiLoad Superdex 75 pg 16/600 column. B: S6BE-3CHR on a HiLoad Superdex 200 pg 16/600 column. C: S2BE-3 HR on a HiLoad Superdex 75 pg 16/600 column. D: S6BE-3 HR-L3 on a HiLoad Superdex 200 pg 16/600 column. E: mEm-v22S6BE-3 HR on a HiLoad Superdex 200 pg 16/600 column. F: dS6AC on a HiLoad Superdex 200 pg 16/600 column.
(§2) Concentrated protein samples were loaded on HiLoad Superdex 75 pg 16/600 or HiLoad Superdex 200 pg 16/600 SEC columns (Cytiva). SEC can also be used to assess biological size. All samples were run with a HEPES buffer (20 mM HEPES, pH 8.0, 200 mM NaCl). Proteins expected to interact with metals were incubated with at least 5 mM EDTA prior to SEC injection.

[2] = molecular target: the molecule itself; assay: size exclusion chromatography
Excerpt: as §1, §2

[3] = molecular target: the molecule itself; assay: SDS PAGE, SEC, XRD; self-association
[4] = molecular target: the molecule itself; assay: dialysis to pH 4.0 and X-ray diffraction; self-assembly into crystals
Excerpt: SAKe's symmetry and modifiable interfaces make it an ideal building block for construction of macromolecular assemblies. […] To understand this reversible self-assembly mechanism, the crystals formed at different pH were investigated with XRD. […] At pH 8.0, His (pKa3 6.08-6.90) and Glu (pKa 4.3-4.4) are deprotonated and the net […] charge of S6BE likely causes mutual repulsion. However, at pH 4 these residues are protonated. Due to its symmetry and dipole-like character, S6BE shape and charge complementarity is then expected to allow for self-assembly into a tight hexagonal packing (FIGS. 2 and 11). A series of hydrogen bonds and hydrophobic interactions can then further stabilize the assembly. Similar mechanisms have been reported for the capsid proteins of cowpea chlorotic mosaic virus (CCMV) [Speir et al. Structure 1995, 3, 63-78; Lavelle et al. J. Phys. Chem. B 2009, 113, 3813-3819; Van Eldijk et al. J. Am. Chem. Soc. 2012, 134, 18506-18509].

B1: S6BE-3HR-L3 (other)
chain: NGLIYAVGGYDGSPDGSTHLNSVEAYDPERNEWSLVAPLSTRRSGVGVAVLNGLIYAVGGFATLETESGELVPTELNSVEAYDPHRNEWSLVAPLSTRRSGVGVAVLNGLIYAVGGYDGSPDGSTHLNSVEAYDPERNEWSLVAPLSTRRSGVGVAVLNGLIYAVGGFATLETESGELVPTELNSVEAYDPHRNEWSLVAPLSTRRSGVGVAVLNGLIYAVGGYDGSPDGSTHLNSVEAYDPERNEWSLVAPLSTRRSGVGVAVLNGLIYAVGGFATLETESGELVPTELNSVEAYDPHRNEWSLVAPLSTRRSGVGVAVL
notes: L3 loop graft on the S6BE-3HR scaffold
B1: no binding [1].

B2: dS6AC (other)
chain: NGRIYAVGGYDGSPDGHTHLNSVEAYDPETDEWSFVAPMTTPRSGVGVAVLNGRIYAVGGYDGSPDGHTHLNSVEAYDPETDEWSFVAPMTTPRSGVGVAVLNGRIYAVGGYDGSPDGHTHLNSVEAYDPETDEWSFVAPMTTPRSGVGVAVLNGRIYAVGGYDGSPDGHTHLNSVEAYDPETDEWSFVAPMTTPRSGVGVAVLNGRIYAVGGYDGSPDGHTHLNSVEAYDPETDEWSFVAPMTTPRSGVGVAVLNGRIYAVGGYDGSPDGHTHLNSVEAYDPETDEWSFVAPMTTPRSGVGVAVLSGGRIYAVGGYDGSPDGHTHLNSVEAYDPETDEWSFVAPMTTPRSGVGVAVLNGRIYAVGGYDGSPDGHTHLNSVEAYDPETDEWSFVAPMTTPRSGVGVAVLNGRIYAVGGYDGSPDGHTHLNSVEAYDPETDEWSFVAPMTTPRSGVGVAVLNGRIYAVGGYDGSPDGHTHLNSVEAYDPETDEWSFVAPMTTPRSGVGVAVLNGRIYAVGGYDGSPDGHTHLNSVEAYDPETDEWSFVAPMTTPRSGVGVAVLNGRIYAVGGYDGSPDGHTHLNSVEAYDPETDEWSFVAPMTTPRSGVGVAVL
notes: Genetic fusion of two S6AC units via a Ser linker
B2: no binding [2].

B3: S2BE-3HR (other)
chain: NGLIYAVGGYDGNTHLNSVEAYDPERNEWSLVAPLSTRRSGVGVAVLNGLIYAVGGYDGNTHLNSVEAYDPHRNEWSLVAPLSTRRSGVGVAVL
notes: Designed two-blade truncation of S6BE-3HR; Expressed from pET-28a with an N-terminal hexahistidine tag that was removed with thrombin
B3: binds [3].

B4: S6BE (other)
chain: MNGLIYAVGGYDGNTHLNSVEAYDPERNEWSLVAPLSTRRSGVGVAVLNGLIYAVGGYDGNTHLNSVEAYDPERNEWSLVAPLSTRRSGVGVAVLNGLIYAVGGYDGNTHLNSVEAYDPERNEWSLVAPLSTRRSGVGVAVLNGLIYAVGGYDGNTHLNSVEAYDPERNEWSLVAPLSTRRSGVGVAVLNGLIYAVGGYDGNTHLNSVEAYDPERNEWSLVAPLSTRRSGVGVAVLNGLIYAVGGYDGNTHLNSVEAYDPERNEWSLVAPLSTRRSGVGVAVL
notes: Designed six-blade B-type SAKe propeller; Expressed with an N-terminal His tag that was removed with thrombin; also called SAKe6BE; S6_6E
B4: binds [4].
